From patent publication EP4717706A1 come the findings set out here.

The target of assay [1] is VLP2 (virus-like particles, capsid protein particles of AAV serotype 2) (AAV serotype 2 (AAV2)) (UniProt P03135). Put plainly: ELISA on immobilised VLP2 (purified protein, 5 µg/mL); start of alkali treatment, the reference of the ratio. Background: ELISA stands for enzyme-linked immunosorbent assay.
The target is the same in assay [2]. Put plainly: ELISA on immobilised VLP2 (purified protein, 5 µg/mL); A450 after 1:1 1 M NaOH with 1 mM CaCl2, 30°C, 30 min divided by A450 at 0 time.
For assay [3] the target is unchanged. Put plainly: ELISA on immobilised VLP2 (purified protein, 5 µg/mL); A450 after 1:1 1 M NaOH with 1 mM CaCl2, 30°C, 45 min divided by A450 at 0 time.
Assay [4] has the same target. Briefly: ELISA on immobilised VLP2 (culture supernatant); A450 after 1:1 1 M NaOH, 15 min, 30°C divided by A450 untreated.
Assay [5] has the same target. Put plainly: ELISA on immobilised VLP2 (culture supernatant, anti-His detection); A450 after 1:1 0.5 M NaOH, 30 min, 30°C divided by A450 untreated.
Assay [6] shares this target. Put plainly: ELISA on immobilised VLP2 (purified protein); start of alkali treatment, the reference of the ratio.
Assay [7] has the same target. Put plainly: ELISA on immobilised VLP2 (purified protein); A450 after 1:1 0.5 M NaOH, 30°C, 30 min divided by A450 at 0 time.
Assay [8] shares this target. Put plainly: ELISA on immobilised VLP2 (purified protein); A450 after 1:1 0.5 M NaOH, 30°C, 60 min divided by A450 at 0 time.

Where a chain is given by its changes, count along the chain named. Names and notes keep the numbering of the source.

Chain of UniProt P03135 (P03135 whole entry): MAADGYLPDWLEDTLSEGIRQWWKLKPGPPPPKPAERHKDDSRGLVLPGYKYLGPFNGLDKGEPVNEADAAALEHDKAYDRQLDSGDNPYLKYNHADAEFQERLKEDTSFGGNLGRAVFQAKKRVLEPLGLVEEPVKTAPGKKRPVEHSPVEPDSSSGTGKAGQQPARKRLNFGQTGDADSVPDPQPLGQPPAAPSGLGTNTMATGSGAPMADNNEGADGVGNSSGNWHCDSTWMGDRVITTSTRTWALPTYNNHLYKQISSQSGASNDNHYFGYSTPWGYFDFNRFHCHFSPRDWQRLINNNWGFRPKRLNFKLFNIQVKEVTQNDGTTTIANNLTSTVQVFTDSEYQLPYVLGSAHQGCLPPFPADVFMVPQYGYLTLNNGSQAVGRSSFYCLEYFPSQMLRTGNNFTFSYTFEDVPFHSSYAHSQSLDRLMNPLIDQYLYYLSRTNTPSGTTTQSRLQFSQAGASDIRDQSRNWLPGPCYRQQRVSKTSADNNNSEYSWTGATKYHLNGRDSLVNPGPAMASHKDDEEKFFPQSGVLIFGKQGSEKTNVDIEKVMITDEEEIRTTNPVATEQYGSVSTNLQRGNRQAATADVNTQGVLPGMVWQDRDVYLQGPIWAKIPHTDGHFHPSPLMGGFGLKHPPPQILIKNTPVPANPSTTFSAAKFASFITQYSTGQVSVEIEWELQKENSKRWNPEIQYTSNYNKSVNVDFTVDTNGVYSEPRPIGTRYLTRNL

B1: AVR27b (AVR25c with I366F, T474R) (receptor)
chain: MGSAGESDQITLPKHEAQLKVYVLLVPPKGEASTYDWQLITHPRDYSGEMEGEHSQFLKLSNLTPGLYEYRAVVEGQNAHSEGYVNVTVEPGPRKNRPPIAIVSPQFQEISLPTTSAVIDGSQSTDDDKIVQYHWEELKGPLREEKISEDTPILKLSNLVPGNYRFRLTVVDTDGATDSTTADLTVNKAVDHHHHHH
As for B1, the Remaining activity [%] in assay [1] came to 100%; in assay [2] it was 17.1%; in assay [3] it was 4.54%.

B2: AVR25c with Q347R, T486A, D500G (receptor)
chain: B1 chain with Q38R, F57I, R165T, T177A, D191G
In assay [4], B2 returned a Remaining activity [%] of 72.8%.

B3: AVR25c with Q318R, E362D, E378G (receptor)
chain: B1 chain with Q9R, E53D, F57I, E69G, R165T
B3: the Remaining activity [%] in assay [4] worked out at 66.1%.

B4: AVR21 with T397S (receptor)
chain: B1 chain with K20N, F57I, T88S, G92E, A117T, P152A, N158Q, R165T
In the case of B4, the Remaining activity [%] in assay [5] worked out at 38.4%.

B5: AVR25c with F(Y)379N (receptor)
chain: B1 chain with F57I, Y70N, R165T
Regarding B5, the Remaining activity [%] in assay [4] amounted to 55.1%.

B6: AVR21 with E(V)335A (receptor)
chain: B1 chain with K20N, V26A, F57I, G92E, A117T, P152A, N158Q, R165T
B6 came in with a Remaining activity [%] in assay [5] of 35.8%.

B7: AVR25c with E378G, V398A (receptor)
chain: B1 chain with F57I, E69G, V89A, R165T
In turn, B7 showed a Remaining activity [%] in assay [4] of 67.5%.

B8: AVR25c with G392E, S433G, A485V, L493M, N496D (receptor)
chain: B1 chain with F57I, G83E, S124G, R165T, A176V, L184M, N187D
For B8, in assay [4], the Remaining activity [%] was 61%.

B9: AVR25c with Q415R, S457R (receptor)
chain: B1 chain with F57I, Q106R, S148R, R165T
As for B9, in assay [4], the Remaining activity [%] came to 55.1%.

B10: AVR25c with R406H, F416L (receptor)
chain: B1 chain with F57I, R97H, F107L, R165T
The molecule B10 yielded a Remaining activity [%] in assay [4] of 41.9%.

B11: AVR27c (AVR25c with V394A, T474R) (receptor)
chain: B1 chain with F57I, V85A
Regarding B11, the Remaining activity [%] in assay [1] came to 100%; in assay [2], 13.6%; in assay [3], 1.73%.

B12: AVR25c with P322A, T350A, L421P (receptor)
chain: B1 chain with P13A, T41A, F57I, L112P, R165T
In turn, B12 displayed a Remaining activity [%] in assay [4] of 49.6%.

B13: AVR21 with N329S, K368R, V412A (receptor)
chain: B1 chain with K20S, F57I, K59R, G92E, V103A, A117T, P152A, N158Q, R165T
In turn, B13 gave a Remaining activity [%] in assay [5] of 37.1%.

B14: AVR25c with V(D)317G, T478I (receptor)
chain: B1 chain with D8G, F57I, R165T, T169I
B14: the Remaining activity [%] in assay [4] is 82%.

B15: AVR25c with H363P, K497E (receptor)
chain: B1 chain with H54P, F57I, R165T, K188E
As for B15, in assay [4], the Remaining activity [%] was 69.6%.

B16: AVR24b (AVR21 with K338R, T426A, A461P) (receptor)
chain: B1 chain with K20N, K29R, F57I, G92E, N158Q, R165T
Turning to B16, the Remaining activity [%] was found to be 100% in assay [6], 89.1% in assay [7] and 17.6% in assay [8].

B17: AVR25c with E325V, D437V (receptor)
chain: B1 chain with E16V, F57I, D128V, R165T
With B17, the Remaining activity [%] in assay [4] is 76.7%.

B18: AVR21 with N329K, E401G (receptor)
chain: B1 chain with F57I, A117T, P152A, N158Q, R165T
In assay [5], B18 gave a Remaining activity [%] of 43.1%.

B19: AVR25c_T474R (AVR25c with T474R) (receptor)
chain: B1 chain with F57I
With B19, the Remaining activity [%] in assay [4] stood at 100%.

B20: AVR21 with T426A (receptor)
chain: B1 chain with K20N, F57I, G92E, P152A, N158Q, R165T
In assay [5], B20 registered a Remaining activity [%] of 43.5%.

B21: AVR27d (AVR25c with K455R, T474R) (receptor)
chain: B1 chain with F57I, K146R
As to B21, the Remaining activity [%] in assay [1] was 100%; in assay [2], 15.8%; in assay [3], 5.11%.

B22: AVR21 with E(V)335A, V394I (receptor)
chain: B1 chain with K20N, V26A, F57I, V85I, G92E, A117T, P152A, N158Q, R165T
Molecule B22 yielded a Remaining activity [%] in assay [5] of 37.3%.

B23: AVR21 with D500N (receptor)
chain: B1 chain with K20N, F57I, G92E, A117T, P152A, N158Q, R165T, D191N
With B23, the Remaining activity [%] in assay [5] was found to be 39.3%.

B24: AVR24a (AVR21 with N329K, E401G, T426A) (receptor)
chain: B1 chain with F57I, P152A, N158Q, R165T
In the case of B24, the Remaining activity [%] in assay [6] is 100%; in assay [7] it was 37.6%; in assay [8] it was 0.3%.

B25: AVR25c with G314D, V499I (receptor)
chain: B1 chain with G5D, F57I, R165T, V190I
B25 showed a Remaining activity [%] in assay [4] of 79.1%.

B26: AVR25b (AVR21 with K338R, E401G, T426A, A461P) (receptor)
chain: B1 chain with K20N, K29R, F57I, N158Q, R165T
B26: the Remaining activity [%] in assay [6] stood at 100%; in assay [7], 100%; in assay [8] it was 1.5%.

B27: AVR21 with L328P, V394A (receptor)
chain: B1 chain with L19P, K20N, F57I, V85A, G92E, A117T, P152A, N158Q, R165T
Molecule B27 came in with a Remaining activity [%] in assay [5] of 40.5%.

B28: AVR21 with V412A (receptor)
chain: B1 chain with K20N, F57I, G92E, V103A, A117T, P152A, N158Q, R165T
B28 registered a Remaining activity [%] in assay [5] of 32.5%.

B29: AVR21 with V332A (receptor)
chain: B1 chain with K20N, V23A, F57I, G92E, A117T, P152A, N158Q, R165T
In assay [5], B29 registered a Remaining activity [%] of 57.6%.

B30: AVR25c with G314D, E399K, E445K (receptor)
chain: B1 chain with G5D, F57I, E90K, E136K, R165T
Regarding B30, the Remaining activity [%] in assay [4] was found to be 62.5%.

B31: AVR25c with T434S (receptor)
chain: B1 chain with F57I, T125S, R165T
In assay [4], B31 yielded a Remaining activity [%] of 77.3%.

B32: AVR26 (AVR21 with N329K, K338R, E401G, T426A, A461P) (receptor)
chain: B1 chain with K29R, F57I, N158Q, R165T
Turning to B32, the Remaining activity [%] in assay [6] is 100%; in assay [7], 100%; in assay [8] it was 23.9%.
